In IntAct's records for PubMed 18171471:

Biological target: fak1_chick PTK2 (UniProt Q00944)
Sequence (Q00944 whole entry): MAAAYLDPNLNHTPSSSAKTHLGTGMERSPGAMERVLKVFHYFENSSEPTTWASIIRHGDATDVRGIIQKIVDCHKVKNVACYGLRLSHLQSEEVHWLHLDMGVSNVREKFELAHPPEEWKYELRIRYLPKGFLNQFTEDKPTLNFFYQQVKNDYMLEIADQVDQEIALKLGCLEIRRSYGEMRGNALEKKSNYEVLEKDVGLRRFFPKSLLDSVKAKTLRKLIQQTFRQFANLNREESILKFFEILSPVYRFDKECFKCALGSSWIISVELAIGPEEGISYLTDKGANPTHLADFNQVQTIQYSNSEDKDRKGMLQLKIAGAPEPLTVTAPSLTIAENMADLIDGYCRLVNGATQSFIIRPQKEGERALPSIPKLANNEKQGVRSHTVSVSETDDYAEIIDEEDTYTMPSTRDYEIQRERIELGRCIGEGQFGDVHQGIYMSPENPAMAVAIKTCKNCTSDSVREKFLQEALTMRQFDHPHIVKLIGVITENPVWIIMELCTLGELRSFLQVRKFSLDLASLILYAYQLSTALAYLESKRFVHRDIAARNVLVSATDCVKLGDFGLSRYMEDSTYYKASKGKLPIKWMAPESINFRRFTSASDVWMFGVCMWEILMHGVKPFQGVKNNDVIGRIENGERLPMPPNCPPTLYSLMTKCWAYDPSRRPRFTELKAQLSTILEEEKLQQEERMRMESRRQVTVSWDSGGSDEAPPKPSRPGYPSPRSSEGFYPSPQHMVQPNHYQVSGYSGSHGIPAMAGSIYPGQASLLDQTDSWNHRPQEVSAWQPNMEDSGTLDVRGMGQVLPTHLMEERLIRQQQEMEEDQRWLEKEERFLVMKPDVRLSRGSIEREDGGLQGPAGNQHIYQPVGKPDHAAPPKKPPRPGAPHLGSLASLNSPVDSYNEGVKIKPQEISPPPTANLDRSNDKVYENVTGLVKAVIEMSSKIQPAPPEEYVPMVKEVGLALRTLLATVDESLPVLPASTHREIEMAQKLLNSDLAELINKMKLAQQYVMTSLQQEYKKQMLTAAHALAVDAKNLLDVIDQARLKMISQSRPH

Paxillin (Gallus gallus (Chicken)), P49024 D146A;D268A, sequence (P49024 whole entry D146A/D268A): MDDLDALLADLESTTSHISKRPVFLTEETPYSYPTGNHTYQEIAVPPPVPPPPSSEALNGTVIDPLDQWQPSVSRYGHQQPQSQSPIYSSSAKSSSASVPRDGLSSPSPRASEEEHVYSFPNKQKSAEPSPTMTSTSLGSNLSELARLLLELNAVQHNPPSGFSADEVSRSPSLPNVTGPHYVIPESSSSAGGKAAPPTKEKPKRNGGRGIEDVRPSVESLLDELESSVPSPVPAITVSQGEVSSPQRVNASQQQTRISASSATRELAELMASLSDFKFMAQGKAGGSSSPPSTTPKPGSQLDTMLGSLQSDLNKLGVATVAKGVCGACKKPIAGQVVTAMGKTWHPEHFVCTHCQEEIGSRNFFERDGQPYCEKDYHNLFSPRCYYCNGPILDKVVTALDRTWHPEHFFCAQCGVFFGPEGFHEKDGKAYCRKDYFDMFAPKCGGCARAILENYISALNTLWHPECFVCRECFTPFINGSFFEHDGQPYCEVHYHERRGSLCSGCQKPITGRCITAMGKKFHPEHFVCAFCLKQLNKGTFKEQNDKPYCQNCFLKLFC
Paxillin (Gallus gallus (Chicken)), P49024 D146A, sequence (P49024 whole entry D146A): as the sequence (P49024 whole entry D146A/D268A) above, with A268D counted along it

| Substance | effect of a mutation on the interaction |
| --- | --- |
| Paxillin (Gallus gallus (Chicken)), P49024 D146A;D268A | disrupting interaction |
| Paxillin (Gallus gallus (Chicken)), P49024 D146A | decreasing interaction |
